In the assay the target is T1, DEN4-80E (Dengue virus type 4, strain H241 …, UniProt Q58HT7).
T1 construct: Envelope (E) protein of dengue virus serotype 4, strain H241, truncated form: 80% of the N-terminal of the E protein; also called DEN-80E of DENV4; truncated envelope protein of DENV4; source: recombinant E protein, component of the tetravalent dengue subunit vaccine V180 (Merck and Co. Inc.)
In words: BLI; Octet RED96 epitope binning: first mAb (30 ug/ml) captured on protein A sensor for 600 s, blocking antibody (200 ug/ml) 300 s, DEN4-80E loaded at 30 ug/ml for 300 s, then second mAb (d462, 5H2, d559, d182). Particulars: both partners purified. (In general: BLI is a label-free optical method that tracks binding on a fibre tip over time.)

T1 sequence (Q58HT7 whole entry, looked up, the tested form may be a part): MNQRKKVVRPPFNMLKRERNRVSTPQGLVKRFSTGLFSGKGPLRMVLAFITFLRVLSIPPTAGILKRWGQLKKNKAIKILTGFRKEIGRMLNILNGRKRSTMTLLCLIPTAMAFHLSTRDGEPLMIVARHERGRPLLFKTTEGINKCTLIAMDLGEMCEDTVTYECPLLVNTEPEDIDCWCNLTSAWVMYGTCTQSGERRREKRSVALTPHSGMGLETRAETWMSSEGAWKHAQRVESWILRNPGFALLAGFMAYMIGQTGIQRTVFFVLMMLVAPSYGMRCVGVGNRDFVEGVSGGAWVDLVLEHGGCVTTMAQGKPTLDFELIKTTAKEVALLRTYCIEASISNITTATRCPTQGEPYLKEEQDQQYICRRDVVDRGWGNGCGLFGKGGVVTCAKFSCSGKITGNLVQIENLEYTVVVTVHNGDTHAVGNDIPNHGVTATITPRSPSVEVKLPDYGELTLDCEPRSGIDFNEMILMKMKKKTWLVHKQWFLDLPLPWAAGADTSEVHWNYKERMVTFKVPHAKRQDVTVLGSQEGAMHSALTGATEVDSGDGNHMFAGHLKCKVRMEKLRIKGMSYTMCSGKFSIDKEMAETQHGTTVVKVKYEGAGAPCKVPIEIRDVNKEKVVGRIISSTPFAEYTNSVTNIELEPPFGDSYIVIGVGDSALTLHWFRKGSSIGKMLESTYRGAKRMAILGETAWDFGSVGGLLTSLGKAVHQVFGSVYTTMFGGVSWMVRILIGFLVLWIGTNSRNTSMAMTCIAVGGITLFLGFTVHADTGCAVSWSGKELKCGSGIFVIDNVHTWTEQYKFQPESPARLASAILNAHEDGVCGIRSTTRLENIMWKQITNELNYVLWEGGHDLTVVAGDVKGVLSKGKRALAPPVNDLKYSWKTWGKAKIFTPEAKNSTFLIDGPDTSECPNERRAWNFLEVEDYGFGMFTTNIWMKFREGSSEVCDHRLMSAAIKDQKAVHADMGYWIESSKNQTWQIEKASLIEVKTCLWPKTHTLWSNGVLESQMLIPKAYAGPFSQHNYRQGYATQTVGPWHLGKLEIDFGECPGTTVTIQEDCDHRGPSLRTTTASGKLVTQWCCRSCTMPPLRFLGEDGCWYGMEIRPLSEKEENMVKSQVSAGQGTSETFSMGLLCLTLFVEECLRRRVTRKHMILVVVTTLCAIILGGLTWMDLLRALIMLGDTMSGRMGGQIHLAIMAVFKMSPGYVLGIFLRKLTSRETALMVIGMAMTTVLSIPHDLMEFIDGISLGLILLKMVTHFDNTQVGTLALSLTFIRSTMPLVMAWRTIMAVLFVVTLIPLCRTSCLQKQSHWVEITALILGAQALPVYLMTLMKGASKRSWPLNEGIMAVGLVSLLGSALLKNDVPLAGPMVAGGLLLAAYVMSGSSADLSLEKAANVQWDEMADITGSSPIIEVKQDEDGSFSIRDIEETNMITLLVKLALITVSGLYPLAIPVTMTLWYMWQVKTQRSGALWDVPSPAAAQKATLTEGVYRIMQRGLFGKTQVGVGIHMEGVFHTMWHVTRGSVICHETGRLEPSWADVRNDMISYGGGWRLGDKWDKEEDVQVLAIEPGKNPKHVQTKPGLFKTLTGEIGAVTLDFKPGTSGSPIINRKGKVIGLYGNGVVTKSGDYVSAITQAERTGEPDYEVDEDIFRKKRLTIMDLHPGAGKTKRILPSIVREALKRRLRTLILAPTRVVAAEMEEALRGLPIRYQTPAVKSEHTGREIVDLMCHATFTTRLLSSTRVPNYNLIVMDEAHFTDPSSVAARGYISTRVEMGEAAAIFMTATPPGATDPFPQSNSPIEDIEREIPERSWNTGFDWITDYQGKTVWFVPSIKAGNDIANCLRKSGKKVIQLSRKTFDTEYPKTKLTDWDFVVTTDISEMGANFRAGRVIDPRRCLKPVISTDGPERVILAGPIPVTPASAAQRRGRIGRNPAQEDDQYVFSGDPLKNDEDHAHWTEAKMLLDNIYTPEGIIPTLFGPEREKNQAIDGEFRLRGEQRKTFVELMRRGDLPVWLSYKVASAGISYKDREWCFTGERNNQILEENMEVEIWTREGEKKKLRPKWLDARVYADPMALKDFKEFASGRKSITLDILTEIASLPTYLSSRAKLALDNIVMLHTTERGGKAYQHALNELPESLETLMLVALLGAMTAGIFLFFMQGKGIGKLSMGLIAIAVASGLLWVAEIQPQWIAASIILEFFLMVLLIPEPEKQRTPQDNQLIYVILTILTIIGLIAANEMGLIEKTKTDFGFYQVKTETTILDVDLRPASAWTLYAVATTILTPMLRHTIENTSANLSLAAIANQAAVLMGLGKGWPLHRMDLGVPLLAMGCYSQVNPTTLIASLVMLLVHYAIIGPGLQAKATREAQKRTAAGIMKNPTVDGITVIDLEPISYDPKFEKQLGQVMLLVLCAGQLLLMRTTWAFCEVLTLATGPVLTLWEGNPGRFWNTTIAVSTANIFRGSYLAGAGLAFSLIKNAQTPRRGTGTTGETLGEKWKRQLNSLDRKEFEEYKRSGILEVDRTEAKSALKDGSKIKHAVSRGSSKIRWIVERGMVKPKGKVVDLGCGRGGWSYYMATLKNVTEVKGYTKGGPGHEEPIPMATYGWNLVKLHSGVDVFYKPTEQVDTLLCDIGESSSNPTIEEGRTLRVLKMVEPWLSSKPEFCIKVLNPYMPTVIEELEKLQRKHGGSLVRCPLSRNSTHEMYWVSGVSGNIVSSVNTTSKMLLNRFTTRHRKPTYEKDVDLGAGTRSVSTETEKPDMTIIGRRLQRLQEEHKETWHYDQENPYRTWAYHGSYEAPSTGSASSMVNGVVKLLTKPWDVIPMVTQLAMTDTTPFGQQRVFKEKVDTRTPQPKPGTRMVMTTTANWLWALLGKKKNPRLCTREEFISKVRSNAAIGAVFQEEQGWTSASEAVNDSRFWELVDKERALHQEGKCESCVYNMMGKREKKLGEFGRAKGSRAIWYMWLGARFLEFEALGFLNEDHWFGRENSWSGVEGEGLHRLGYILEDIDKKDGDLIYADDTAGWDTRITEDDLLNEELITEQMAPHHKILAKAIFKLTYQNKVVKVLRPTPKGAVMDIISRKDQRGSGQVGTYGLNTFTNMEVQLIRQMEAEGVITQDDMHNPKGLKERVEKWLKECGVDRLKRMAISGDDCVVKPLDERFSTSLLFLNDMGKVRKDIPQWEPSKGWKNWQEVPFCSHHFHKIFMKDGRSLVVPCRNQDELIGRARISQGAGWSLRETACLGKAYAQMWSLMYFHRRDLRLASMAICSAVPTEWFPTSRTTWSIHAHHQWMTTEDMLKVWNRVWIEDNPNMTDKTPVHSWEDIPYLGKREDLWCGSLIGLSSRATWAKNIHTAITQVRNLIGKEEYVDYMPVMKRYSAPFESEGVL

B1: chimpanzee antibody 5H2 (antibody, V domains shown)
VH: EVQLLESGPGLVKPSETLSLTCTVSGGSISDFYWSWLRQSPGKGLEWIGYAHSRVSAYYNPSLKSRVTISVDTSKNQISLRLSAVTAADTALYYCARQGTGTTGVSEDSFDLWGQGTKVIVSL
VL: ELQMTQSPSSLSASVGDRVTITCRASQDISIRLNWYQQKPGKAPKLLIYDASTLESGVPSRFSGSGSGTDFTLTISSLQPEDFATYYCQQFNSYPLTFGGGTKVEIK
notes: also called mAb 5H2
On to B1, for which the binding result is recorded as “binds”.

Values taken from paper PMC6553876 (PLoS Pathogens, 2019).
